Measurements reported in IntAct's records for PubMed 24788516.

B1: KAT8 regulatory NSL complex subunit 2 (Homo sapiens), Q9H9L4 (parent)
chain: MNRIRIHVLPTNRGRITPVPRSQEPLSCAFTHRPCSHPRLEGQEFCIKHILEDKNAPFKQCSYISTKNGKRCPNAAPKPEKKDGVSFCAEHVRRNALALHAQMKKTNPGPVGETLLCQLSSYAKTELGSQTPESSRSEASRILDEDSWSDGEQEPITVDQTWRGDPDSEADSIDSDQEDPLKHAGVYTAEEVALIMREKLIRLQSLYIDQFKRLQHLLKEKKRRYLHNRKVEHEALGSSLLTGPEGLLAKERENLKRLKCLRRYRQRYGVEALLHRQLKERRMLATDGAAQQAHTTRSSQRCLAFVDDVRCSNQSLPMTRHCLTHICQDTNQVLFKCCQGSEEVPCNKPVPVSLSEDPCCPLHFQLPPQMYKPEQVLSVPDDLEAGPMDLYLSAAELQPTESLPLEFSDDLDVVGDGMQCPPSPLLFDPSLTLEDHLVKEIAEDPVDILGQMQMAGDGCRSQGSRNSEKASAPLSQSGLATANGKPEPTSIS
B2: KAT8 regulatory NSL complex subunit 1 (Homo sapiens), Q7Z3B3 (parent)
chain: MAAMAPALTDAAAEAHHIRFKLAPPSSTLSPGSAENNGNANILIAANGTKRKAIAAEDPSLDFRNNPTKEDLGKLQPLVASYLCSDVTSVPSKESLKLQGVFSKQTVLKSHPLLSQSYELRAELLGRQPVLEFSLENLRTMNTSGQTALPQAPVNGLAKKLTKSSTHSDHDNSTSLNGGKRALTSSALHGGEMGGSESGDLKGGMTNCTLPHRSLDVEHTTLYSNNSTANKSSVNSMEQPALQGSSRLSPGTDSSSNLGGVKLEGKKSPLSSILFSALDSDTRITALLRRQADIESRARRLQKRLQVVQAKQVERHIQHQLGGFLEKTLSKLPNLESLRPRSQLMLTRKAEAALRKAASETTTSEGLSNFLKSNSISEELERFTASGIANLRCSEQAFDSDVTDSSSGGESDIEEEELTRADPEQRHVPLRRRSEWKWAADRAAIVSRWNWLQAHVSDLEYRIRQQTDIYKQIRANKGLIVLGEVPPPEHTTDLFLPLSSEVKTDHGTDKLIESVSQPLENHGAPIIGHISESLSTKSCGALRPVNGVINTLQPVLADHIPGDSSDAEEQLHKKQRLNLVSSSSDGTCVAARTRPVLSCKKRRLVRPNSIVPLSKKVHRNSTIRPGCDVNPSCALCGSGSINTMPPEIHYEAPLLERLSQLDSCVHPVLAFPDDVPTSLHFQSMLKSQWQNKPFDKIKPPKKLSLKHRAPMPGSLPDSARKDRHKLVSSFLTTAKLSHHQTRPDRTHRQHLDDVGAVPMVERVTAPKAERLLNPPPPVHDPNHSKMRLRDHSSERSEVLKHHTDMSSSSYLAATHHPPHSPLVRQLSTSSDSPAPASSSSQVTASTSQQPVRRRRGESSFDINNIVIPMSVAATTRVEKLQYKEILTPSWREVDLQSLKGSPDEENEEIEDLSDAAFAALHAKCEEMERARWLWTTSVPPQRRGSRSYRSSDGRTTPQLGSANPSTPQPASPDVSSSHSLSEYSHGQSPRSPISPELHSAPLTPVARDTPRHLASEDTRCSTPELGLDEQSVQPWERRTFPLAHSPQAECEDQLDAQERAARCTRRTSGSKTGRETEAAPTSPPIVPLKSRHLVAAATAQRPTHR

Variants of: B1
Conditions: with wdr5_human WDR5, P61964

| effect of a mutation on the interaction | Variant |
| --- | --- |
| disrupting interaction | L411E;V413D |

Variants of: B1
Conditions: with wdr5_human WDR5, P61964
Remark: another data set of the same source

| effect of a mutation on the interaction | Variant |
| --- | --- |
| disrupting interaction | V413D |

Variants of: B2
Conditions: with wdr5_human WDR5, P61964

| effect of a mutation on the interaction | Variant |
| --- | --- |
| disrupting interaction | R592A |
